Assay results from PMC7904846 (2021).

B1: CD105 (natural protein)
chain: ETVHCDLQPVGPERGEVTYTTSQVSKGCVAQAPNAILEVHVLFLEFPTGPSQLELTLQASKQNGTWPREVLLVLSVNSSVFLHLQALGIPLHLAYNSSLVTFQEPPGVNTTELPSFPKTQILEWAAERGPITSAAELNDPQSILLRLGQAQGSLSFCMLEASQDMGRTLEWRPRTPALVRGCHLEGVAGHKEAHILRVLPGHSAGPRTVTVKVELSCAPGDLDAVLILQGPPYVSWLIDANHNMQIWTTGEYSFKIFPEKNIRGFKLPDTPQGLLGEARMLNASIVASFVELPLASIVSLHASSCGGRLQTSPAPIQTTPPKDTCSPELLMSLIQTKCADDAMTLVLKKELVAHLKCTITGLTFWDPSCEAEDRGDKFVLRSAYSSCGMQVSASMISNEAVVNILSSSSPQRKKVHCLNMDSLSFQLGLYLSPHFLQASNTIEPGQQSFVQVRVSPSVSEFLLQLDSCHLDLGPEGGTVELIQGRAAKGNCVSLLSPSPEGDPRFSFLLHFYTVPIPKTGTLSCTVALRPKTGSQDQEVHRTVFMRLNIISPDLSGCTSKGLVLPAVLGITFGAFLIGALLTAALWYIYSHTRSPSKREPVVAVAAPASSESSSTNHSIGSTQSTPCSTSSMA

Legend:
Experiment in all cases: SPR
C59 = target: C59
C68 = target: C68
C168 = target: C168
C86 = target: C86
C50 = target: C50
CD105 [1] = target: B1
CD105 [2] = target: B1

Row | Binder | Kd (C59) [nM] | koff (C59) [s⁻¹] | Kd (C68) [nM] | koff (C68) [s⁻¹] | Kd (C168) [nM] | koff (C168) [s⁻¹] | Kd (C86) [nM] | koff (C86) [s⁻¹] | Kd (C50) [nM] | koff (C50) [s⁻¹] | koff (CD105 [1]) [s⁻¹] | Kd (CD105 [2]) [nM]
1 | B1 | 65.9 | 0.00255 | 28.9 | 0.00171 | 89 | 0.00391 | 42.6 | 0.00144 | 16.2 | 0.00132 | – | –
2 | Nb C184 (VHH) VHH: QVQLQESGGGSVQAGGSLRLSCVASGYTVSRGYMGWFRQAPGKEREAVAAIRTGSGSTYYADSVKGRFTISQDNAKNTVYLQMNSLKHEDTGMYYCAASLWYGGNWQSWGSYNYWGQGTQVTVSS | – | – | – | – | – | – | – | – | – | – | 0.00188 | 44.7
